Reference: patent publication US20260045319A1 (UNIVERSITY COURT OF THE UNIVERSITY OF ST ANDREWS, published 2026)

Target: the molecule itself
Test: size exclusion chromatography on a column calibrated with protein standards; self-association

B1: Dsg407 from Cyanophage Syn10 GenBank: AGH56623.1 (enzyme)
chain: MKIESVAIVGGGSSGWMTAAALSKLCPQLEIALIEDPNIKTVGVGESTLGHFNKFLHLLDLKDEDWMPACNATYKNSIRFTNFREGKGEVFEYPFGPSLDVSFFSQTDGINTWGKLANKYPEDFPPETFARFVNSNTYLAEHNRLTRNKDNKIPNFNFDWDTAYHIDAELFGQYLKEKIALPNGVKHIQGKVTGYQKESPNNHNFKYIILDQETAIFADLYIDCTGFKSLLLGEFMGEAFSPFSKKLANDKAMATRIPYENREEEMHNVTDCHAMKNGWVWNIPLWNRIGTGYCYSSRFVSKDDAEAEFREHLGERGKDAKIFHIDIGHGKRTRAWVNNCVGIGLSYGFIEPLESTGLLTTHENIENLVYLINQRDGYVTQAERDGFNYTCDHQIDSFSDFVAMHYAYSMRTDTPYWKWCTQMCNYMPESMGPHRQKQSTWQDLSTDTIGLNTWHINHNGISFIIAGHGLRPQSYDKLSEVLLKRNNESDYYYEDIRKDWLKHYESMVEYVKTLPTHYEFLRDEIYGSAE
notes: also called hypothetical protein CPUG_00131; viral halogenase Dsg407
binding result: binds
